From US20230137562A1, “TAU AGGREGATION INHIBITORS” (priority 2017, published 2023)
Where “and” joins values, the source holds several entries; their conditions need not be identical. Identical values can stand only once. Square brackets hold non-standard residues; d marks the D form. Ends that are not written are not given here. NMeI = CC[C@H](C)[C@H](NC)C(=O)O; hArg = N=C(N)NCCCC[C@H](N)C(=O)O; Orn = NCCC[C@H](N)C(=O)O

T1: Ac-VQIINK-NH2
T1 peptide: Ac-VQIINK-NH2


What follows are binders tested against His-Tau40P301L Tau (UniProt P10636-8 1-441) (assay: cell-based or functional assay).
His-Tau40P301L Tau, sequence (P10636 other isoform, or with tags, fused parts or gaps limits assumed): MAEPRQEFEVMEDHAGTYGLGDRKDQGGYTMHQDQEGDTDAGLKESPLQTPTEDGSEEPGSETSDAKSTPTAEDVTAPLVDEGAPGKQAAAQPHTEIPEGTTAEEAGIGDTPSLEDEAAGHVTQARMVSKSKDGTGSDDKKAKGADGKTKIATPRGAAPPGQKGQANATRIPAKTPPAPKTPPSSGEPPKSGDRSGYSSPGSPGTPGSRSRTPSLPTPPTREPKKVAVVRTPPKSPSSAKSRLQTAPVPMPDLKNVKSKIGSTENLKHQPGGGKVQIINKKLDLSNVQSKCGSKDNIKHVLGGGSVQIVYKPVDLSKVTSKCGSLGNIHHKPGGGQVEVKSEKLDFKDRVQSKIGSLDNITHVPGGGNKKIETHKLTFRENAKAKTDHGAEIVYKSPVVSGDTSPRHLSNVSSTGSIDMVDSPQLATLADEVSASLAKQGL

Binder | IC50 (µM), Tau40 assay (ThT)
W[Orn]I[Orn]I[Orn]W [WOIOIOW] | 1.17 µM
YRIRLRY | 1.08 µM
WRLWIHWW | 2.96 µM
WRIAIRW | 4.01 µM
WR[NMeI]RIRW [WR(NMe)IRIRW] | 1.48 µM
IRIWLW | 4.08 µM
RIRRWIW | 4.55 µM
RIRIRIW | 2.89 µM
W[hArg]I[hArg]I[hArg]W [W(hR)I(hR)I(hR)W] | 6.13 µM
RIRLYIW | 2.12 µM
WRIWARYW | 2.95 µM
WRIWLYWR | 1.69 µM
LFYLRLR | 7.13 µM
HWWIRIRYW | 3.11 µM
YKLHIRHW | 5.72 µM
WRIWIRYL | 4.09 µM
RIRIWYW | 5.51 µM
WRILIRYW | 14.6 µM
WWIRIRYWH | 2.16 µM and 2.3 µM
ILRYWH | 2.49 µM
WRIFIRYW | 7.67 µM
RIRIWRW | 2.39 µM
RIWIRYWW | 2.28 µM

Binder | IC50 (µM), Tau40 assay (ThT)
LWWIRIRYW | 1.59 µM and 1.8 µM
WRIRLRGW | 1.74 µM and 1.91 µM
FRIRIRF | 6.01 µM
RIRLYWW | 1.74 µM
WRIEIRYW | 12 µM
RIRAWIW | 14.6 µM
RIRIWAW | 8.38 µM
RIRIWKW | 5.71 µM
WRLRLRW | 0.23 µM
RIWIYWFR | 0.55 µM
WRIEIRW | 4.84 µM
WY[Orn]L[Orn]I[Orn]W [WYOLOIOW] | 5.2 µM
WRVWGWVRW | 1.81 µM and 1.85 µM
HWKIIWYR | 2.39 µM
LRIWIRYW | 1.71 µM
WEIRIRW | 11.1 µM
WRIWIRAW | 3.54 µM
WYRVRGRVW | 6.4 µM and 6.5 µM
WRAWIRYW | 2.59 µM
RIRIWIW | 0.84 µM and 1.38 µM
WRINIRYW | 7.45 µM
FRIWIRYW | 2.12 µM
RIRLWYW | 8.01 µM

Biological target: T1, Ac-VQIINK-NH2
Assay: cell-based or functional assay

Binder | IC50 (µM), VQIINK Inhibition (ThT) [µM]
IRLWLW | 1.27
IRIWVW | 2.43
WRIWIRYW | 1.89
RIRIWLW | 1.93
IRLIVW | 3.01
WRIWLWYR | 2.7
WRLRLRW | 2.22
RIWLRVW | 4.09
RIRIWIW | 2.38
